{
  "source": "patent US20110281938",
  "proteins": {"B1": {"name": "Factor Xa (FXa) (protein)", "chain 1": "ANSFLEEMKKGHLERECMEETCSYEEAREVFEDSDKTNEFWNKYKDGDQCETSPCQNQGKCKDGLGEYTCTCLEGFEGKNCELFTRKLCSLDNGDCDQFCHEEQNSVVCSCARGYTLADNGKACIPTGPYPCGKQTLER", "chain 2": "IVGGQECKDGECPWQALLINEENEGFCGGTILSEFYILTAAHCLYQAKRFKVRVGDRNTEQEEGGEAVHEVEVVIKHNRFTKETYDFDIAVLRLKTPITFRMNVAPACLPERDWAESTLMTQKTGIVSGFGRTHEKGRQSTRLKMLEVPYVDRNSCKLSSSFIITQNMFCAGYDTKQEDACQGDSGGPHVTRFKDTYFVTGIVSWGEGCARKGKYGIYTKVTAFLKWIDRSMKTRGLPKAKSHAPEVITSSPLK"}, "B2": {"name": "tissue factor:FVIIa complex (TF:FVIIa) (protein)", "chain 1": "SGTTNTVAAYNLTWKSTNFKTILEWEPKPVNQVYTVQISTKSGDWKSKCFYTTDTECDLTDEIVKDVKQTYLARVFSYPAGNVESTGSAGEPLYENSPEFTPYLETNLGQPTIQSFEQVGTKVNVTVEDERTLVRRNNTFLSLRDVFGKDLIYTLYYWKSSSSGKKTAKTNTNEFLIDVDKGENYCFSVQAVIPSRTVNRKSTDSPVECMGQEKGEFREIFYIIGAVVFVVIILVIILAISLHKCRKAGVGQSWKENSPLNVS", "chain 2": "ANAFLEELRPGSLERECKEEQCSFEEAREIFKDAERTKLFWISYSDGDQCASSPCQNGGSCKDQLQSYICFCLPAFEGRNCETHKDDQLICVNENGGCEQYCSDHTGTKRSCRCHEGYSLLADGVSCTPTVEYPCGKIPILEKRNASKPQGRIVGGKVCPKGECPWQVLLLVNGAQLCGGTLINTIWVVSAAHCFDKIKNWRNLIAVLGEHDLSEHDGDEQSRRVAQVIIPSTYVPGTTNHDIALLRLHQPVVLTDHVVPLCLPERTFSERTLAFVRFSLVSGWGQLLDRGATALELMVLNVPRLMTQDCLQQSRKVGDSPNITEYMFCAGYSDGSKDSCKGDSGGPHATHYRGTWYLTGIVSWGQGCATVGHFGVYTRVSQYIEWLQKLMRSEPRPGVLLRAPFP"}, "B3": {"name": "extrinsic Xase: re-lipidated recombinant human tissue factor (Innovin) with factor VIIa (Enzyme Research Laboratories) (protein)", "chain 1": "B2 chain 1", "chain 2": "B2 chain 2"}},
  "key": {"[1]": {"target": "TFPI (source and species not stated; Examples 8, 12 and 45), P10646", "sequence (P10646 whole entry, looked up)": "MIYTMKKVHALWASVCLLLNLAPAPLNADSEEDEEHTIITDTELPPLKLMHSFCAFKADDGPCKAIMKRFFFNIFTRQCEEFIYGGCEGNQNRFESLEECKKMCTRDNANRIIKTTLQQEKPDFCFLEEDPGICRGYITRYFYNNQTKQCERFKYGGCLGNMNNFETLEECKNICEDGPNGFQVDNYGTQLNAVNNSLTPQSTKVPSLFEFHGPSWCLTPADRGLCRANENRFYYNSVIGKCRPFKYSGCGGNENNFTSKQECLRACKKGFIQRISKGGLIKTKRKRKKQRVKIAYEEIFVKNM"}, "[2]": {"target": "Recombinant human TFPI purified from a cell line from Novo Nordisk"}},
  "data": [
    {"protein": "B1", "values": [
      {"measurement": "FXa cleavage of chromogenic substrate S-2765, substrate added last, 1 nM FXa", "setting": "[1]", "value": "In the presence of ≧8 nM TFPI, inhibition is nearly complete under these conditions and little product is formed"}
    ]},
    {"protein": "B2", "values": [
      {"measurement": "TF:FVIIa activity, hydrolysis of fluorogenic substrate SN-17c, 8 nM TFPI", "setting": "[1]", "value": "TFPI inhibited approximately 50% of TF:FVIIa activity under these conditions"}
    ]},
    {"protein": "B3", "values": [
      {"measurement": "FXa generation by the extrinsic Xase (chromogenic FXa substrate), 2 nM TFPI", "setting": "[2]", "value": "curve #6 shows that TFPI shuts down Xa generation in the absence of ARC19499"}
    ]}
  ]
}
